± gives the uncertainty stated by the source.
Assay: amyloid nucleation score (Sup35N fusion, yeast selection) (log enrichment); library NNK2; higher = more nucleation; inactive = no reads after selection
Outline: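 In psi-negative yeast, Sup35N fusions carrying peptides of 20 random codons were induced with 100 μM copper sulfate for 24 hours. The cells then grew 7 days at 30°C on medium lacking adenine and uracil, and plasmid inserts from input and output were Illumina-sequenced, excluding sequences with under 100 input reads. Nucleation score is the DiMSum log enrichment of output over input reads, centred on the mode score of non-aggregating sequences.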

AYSKTNVFNSWWLVKCLFLF
amyloid nucleation score: inactive

AYVRNAIGTMFLLALSHRGD
amyloid nucleation score: -0.345 ± 0.48

CAFRASFLLT
amyloid nucleation score: 0.04 ± 0.34

CAIKFPYQFTYLNINNQ
amyloid nucleation score: 6.229 ± 0.044

CAINPKVKRSFLVI
amyloid nucleation score: -1.73 ± 1.1

CAISYSFPGIFRQWCVFPDG
amyloid nucleation score: -0.593 ± 0.33

CAPVTLVFRYAGIYMQLFIW
amyloid nucleation score: inactive

CASRC
amyloid nucleation score: 4.11 ± 0.06

CCAGWYSGEEGRMGSRL
amyloid nucleation score: 0.511 ± 0.18

CCFVVISYDRNSQLH
amyloid nucleation score: 9.791 ± 0.043

CCPASYMQYEFLGRMSGGCW
amyloid nucleation score: 2.82 ± 0.15

CCRNLRDRLNW
amyloid nucleation score: inactive

CCSIVSTYRKYLVNRTRWIF
amyloid nucleation score: -0.982 ± 0.42

CCSVCFRRLLYLLSRR
amyloid nucleation score: 6.9 ± 0.068

CCVAGLFEWHWY
amyloid nucleation score: 8.409 ± 0.081

CCVDDRWVDARPWGSRNSRA
amyloid nucleation score: 0.491 ± 0.57

CDFDIHERMCPYCYIIQVGD
amyloid nucleation score: -0.081 ± 0.65

CDHVVVIIIVGWGAEGE
amyloid nucleation score: 0.512 ± 0.25

CDISRGLILYTHGLLFWTIR
amyloid nucleation score: inactive

CDMFLSYLRT
amyloid nucleation score: 1.74 ± 0.23

CDSWWYFSNKANSLWSKCSA
amyloid nucleation score: -0.723 ± 0.35

CDVRMRVAGRAR
amyloid nucleation score: 3.19 ± 0.11

CDYWYYIGRRNVEMEHRVTC
amyloid nucleation score: 0.148 ± 1

CEFLMLFREFLDW
amyloid nucleation score: 4.59 ± 0.055

CEFMCLQGSRDRIDFLHRSE
amyloid nucleation score: -1 ± 0.34

CELRIFTCHDSCAVLDRWME
amyloid nucleation score: 1.16 ± 0.18

CEVSGYARWLGQHYWSAVRA
amyloid nucleation score: 1.69 ± 0.32

CFFLYIRHFAMYCA
amyloid nucleation score: 1.65 ± 0.17

CFFPDSVTTELKKIKTL
amyloid nucleation score: -0.692 ± 0.41

CFGIILVQGYMHA
amyloid nucleation score: 3.6 ± 0.052

CFIENILRFGSW
amyloid nucleation score: 3.1 ± 0.052

CFKDYQIGSCKQSL
amyloid nucleation score: -0.499 ± 0.76

CFLGHGCILVGYLRDYRLLR
amyloid nucleation score: 0.759 ± 0.67

CFLTTYNRNYNLMRVFSIFR
amyloid nucleation score: 1.43 ± 0.21

CFMDFQWHMRSHG
amyloid nucleation score: -0.265 ± 0.3

CFPSILSRFINLRCPGRSSY
amyloid nucleation score: inactive

CFSKMFNV
amyloid nucleation score: -1.03 ± 0.53

CGARRGCDSWTSSTAGKSVG
amyloid nucleation score: 1.16 ± 0.61

CGFIVKTAWGLVLATLGATY
amyloid nucleation score: 2.54 ± 0.11

CGFSWCIDQLGTCLCKMVVV
amyloid nucleation score: -0.269 ± 0.28

CGLLGVPFTKLTMLISRRMT
amyloid nucleation score: 0.286 ± 0.61

CGLLYREVSIGQGSPTGVRD
amyloid nucleation score: inactive

CGLVLVIRVYITSLYNSRFM
amyloid nucleation score: 1.49 ± 0.14

CGLWASNSSTFRDFESNESN
amyloid nucleation score: -0.51 ± 0.63

CGMNGKTEGEWMGYRKDEGE
amyloid nucleation score: 6.03 ± 0.077

CGMRTEMTLGCLILAAGTWT
amyloid nucleation score: 0.111 ± 0.5

CGQFAYYGACDVGIFFRS
amyloid nucleation score: 4.74 ± 0.037

CGRWVSGAWDGCGCGLGVLG
amyloid nucleation score: -0.305 ± 0.55

CHHQRYGSGFRLRNSLTVGS
amyloid nucleation score: 0.015 ± 0.41

CHPLEMWFFFSLGGFGVSMT
amyloid nucleation score: -1.54 ± 1.1

CHQVI
amyloid nucleation score: 0.383 ± 0.74

CHRLVLQLI
amyloid nucleation score: inactive

CHSLRILRPRIYSVQVMLIG
amyloid nucleation score: -0.01 ± 0.63

CIAYRDSTAYHNMTRGTAMV
amyloid nucleation score: 3.72 ± 0.043

CIDVRDTWNVPSVDYSMVLY
amyloid nucleation score: -0.363 ± 1.1

CIEDRVCLDS
amyloid nucleation score: 8.276 ± 0.041

CIFWLDYATFDTGLSLYMCE
amyloid nucleation score: -0.094 ± 1

CIKALRVYFYEGFTSTR
amyloid nucleation score: -1.89 ± 1.1

CILRGLVASSNNSGSIGAMK
amyloid nucleation score: 0.361 ± 0.23

CINYG
amyloid nucleation score: 0.96 ± 0.39

CIVMLRTIIQRSFNMSMTHY
amyloid nucleation score: 3.2 ± 0.058

CIYHGANRIYLSDVA
amyloid nucleation score: 0.381 ± 0.6

CKIEGWCTGCGSRQLRARAE
amyloid nucleation score: 1.09 ± 0.34

CKWMLEENMGQEADSV
amyloid nucleation score: -0.289 ± 0.21

CLAISWEGWSNSFGRYVVGW
amyloid nucleation score: 1.86 ± 0.1

CLCQIHSRSYPFIL
amyloid nucleation score: 0.148 ± 1

CLGSLHNVLQALAMTEPSNY
amyloid nucleation score: 0.044 ± 0.79

CLKAFIWLRRLEGQI
amyloid nucleation score: 0.082 ± 1.1

CLKEMVKVCRGWWRANGSGR
amyloid nucleation score: 0.433 ± 0.46

CLRGSR
amyloid nucleation score: 0.03 ± 0.2

CLRLFTQSGFE
amyloid nucleation score: -0.362 ± 0.38

CLSSSSVVALGNRLETWIYA
amyloid nucleation score: 2.73 ± 0.086

CLSVCCEDFNRSLTHYASSL
amyloid nucleation score: -0.743 ± 0.76

CLVVHFPVCQQAKKDCDFRY
amyloid nucleation score: 4.53 ± 0.051

CLVVLISVVPMVGSLFSRCG
amyloid nucleation score: inactive

CLWSSNSSSIWDIGRYFRR
amyloid nucleation score: -1.21 ± 0.31

CLYCVMASQWGCFGLVESVT
amyloid nucleation score: 1.73 ± 0.47

CMCENTYNRRIKVRYEWLKW
amyloid nucleation score: -0.619 ± 0.21

CMGFLYTNTYCGGILIELFI
amyloid nucleation score: inactive

CMMLAPLCLSLL
amyloid nucleation score: -0.018 ± 1.1

CMSVGGGLHG
amyloid nucleation score: 3.13 ± 0.071

CMWGVDQPCLTTLTEAVLKP
amyloid nucleation score: 1.96 ± 0.12

CNCDMLFCTTVSFRVLDTEN
amyloid nucleation score: 8.295 ± 0.037

CNFEHFFYKVFRFLQWTVYE
amyloid nucleation score: -0.153 ± 1.1

CNFSCGPKNQKNSMILWILN
amyloid nucleation score: inactive

CNHFMTFRWWLVEQAGSMLA
amyloid nucleation score: 0.044 ± 1.1

CNLESMQSHFMVLCTFDG
amyloid nucleation score: -0.044 ± 0.63

CNRCIQRMRASMTDSVFSGV
amyloid nucleation score: -1.35 ± 0.49

CNRLVVLSSCNWYRDVADSL
amyloid nucleation score: 0.115 ± 1

CNSSSGHDKIVIGSLFRVFA
amyloid nucleation score: -1.42 ± 0.62

CNVSCFVRVVFKWIIS
amyloid nucleation score: 2.33 ± 0.24

CNVSSELCYYGMSTYIKNPM
amyloid nucleation score: -0.947 ± 0.32

CPFESRIAST
amyloid nucleation score: 0.132 ± 0.26

CPGRRTISFYSFSFVFRSMN
amyloid nucleation score: inactive

CPWSQSRLAYYTCGYYTASS
amyloid nucleation score: 0.193 ± 0.5

CQAVRRILCYWTAYDIERAV
amyloid nucleation score: 1.16 ± 0.22

CQDSALALGDVFVPDKGVVR
amyloid nucleation score: 0.36 ± 0.8

CQMYHKCALVLLAGHQLRRR
amyloid nucleation score: 1.19 ± 0.33

CQRTTGALTSGWKPDDIGSV
amyloid nucleation score: 0.192 ± 0.46

CQSCYYHNR
amyloid nucleation score: -0.77 ± 0.21

CRARNCVRLW
amyloid nucleation score: 0.165 ± 0.65

CRCGWKGDSFKISMKMRNWV
amyloid nucleation score: 5.36 ± 0.066

CRFIRFHYLGYNLGSHHIYI
amyloid nucleation score: -0.902 ± 0.78

CRFKVQQMTMENLAQMLVKG
amyloid nucleation score: 1.15 ± 0.68

CRGTQALSYSLS
amyloid nucleation score: -0.017 ± 0.76

CRGVNVHDSSW
amyloid nucleation score: -0.321 ± 0.22

CRITNSNSL
amyloid nucleation score: -0.448 ± 0.28

CRKCFT
amyloid nucleation score: 0.717 ± 0.4

CRMHVFVEC
amyloid nucleation score: -0.019 ± 0.53

CRSFAVTDLRVYVKF
amyloid nucleation score: 2.12 ± 0.12

CRSTGIDIIYYHISFFLYIW
amyloid nucleation score: inactive

CRVALSVVYHTINEKQWYRV
amyloid nucleation score: -0.988 ± 0.28

CRVYMVDWGVVLRFDVRGSS
amyloid nucleation score: -0.909 ± 0.78

CRYTASASDPDDTGLIRFNA
amyloid nucleation score: 3.75 ± 0.073

CSCDGWVCPCSACIC
amyloid nucleation score: 8.708 ± 0.035

CSDCDSRMC
amyloid nucleation score: -0.41 ± 0.42

CSHTVFGSVCGFTLFQVH
amyloid nucleation score: 4.06 ± 0.13

CSIVVNQARCDGSCNYRKVM
amyloid nucleation score: 9.731 ± 0.055

CSLLGNFYILGYWATFMASD
amyloid nucleation score: -1.57 ± 0.53

CSLMNNRVHFVWSHRRMSGT
amyloid nucleation score: 0.276 ± 1

CSLVAPGTYYYGEWFPGQMS
amyloid nucleation score: -0.66 ± 0.29

CSNYFLSEELRHSVEVGSES
amyloid nucleation score: 0.463 ± 0.18

CSPYVRSCTGYVEWGSIRTM
amyloid nucleation score: 0.06 ± 0.29

CSRLG
amyloid nucleation score: -1.39 ± 1.1

CSSYHLEYKCYKHLLWFQSR
amyloid nucleation score: -0.306 ± 0.3

CSVWWLWSLRM
amyloid nucleation score: 1.13 ± 0.43
